The data set is described as follows: label from the status in PepcDB records.
“MLEKLIERVLFATRWLLAPLCIAMSLVLVVLGYVFMKELWHMLSHLNTISETDLVLSALGLVDLLFMAGLVLMVLLASYESFVSKLDKVDASEITWLKHTDFNALKLKVSLSIVAISAIFLLKRYMSLEDVLSSIPKDTPLSHNPIFWQVVIHLVFVCSALLAAVTNNIAFSQNKAH”: the protein production result was “failed”. As for “MSLEPLDVDAEGVAAATKARGFRPKHLVTGPSRDDKSFLGHPGGLPWMLQVEMWERFSWYGMRAILVYFITDTLAHGGLGLPINAGQVVMASYGAAVLLMTIPGGIFADRILGPWMSTLCGGLIIMTGHVILAIPQVVTSWIGLICIAIGTGFIKPNLSTVVGGLYDDGDPRRDQGFLYFYMSINIGSLFAPIVTGLLKDHYGYHVGFIAAAIGMALGLIAFFHGRSKLREFAFDIPNPLAPGEGRRMVLRALGIAVVGAVLAIGFKALLGEWTSAIAYALFAFASVTALSYFLTMFRSPKVSDRERGHLWAFVPLWVGQVLFTMIFEQAAGKMPTFAKDNTDGHIVGSWSVEPEQYQTINPAAVLILAGLLGMWFRRREGKFPNTPQKFAISVFIIGITALIMGFGFRSWPGGNRLAPWWFLAVVFVIQTVAELFMNPIGLSTATKLAPKKFASQNMTLWLLASACGQGLASVTIERTKNLGDVVFYYSLGIVTILVAVVLFVIAPWTQAKMKDVDSVAEEGDA”, the protein production entry is “failed”.

For “SIVLSDPDTVADYLRFHLGQEKVEVSVALLLNRQNQLIAVRELSRGTVAENTIYIREIVKLALDEYADSLIIAHNHPGGSPEPSQEDIMFTRRLAQAMSLVDVSLLDHFIVTSQSVCSFRQLGLMP”, the protein production result is on record as “not failed”. Next, “MRVLITGATGGLGGAFARALKGHDLLLSGRRAGALAELAREVGARALPADLADELEAKALLEEAGPLDLLVHAVGKAGRASVREAGRDLVEEMLAAHLLTAAFVLKHARFQKGARAVFFGAYPRYVQVPGFAAYAAAKGALEAYLEAARKELLREGVHLVLVRLPAVATGLWAPLGGPPKGALSPEEAARKVLEGLFREPVPALLEV”: “not failed”. For “MSMPILLLVAVILAIYAVAYLFYGRNILQEKVVRASPERETPAIAKFDGVDYVPAHRFVLFGHHFASIAGAGPIVGPAIAMAYGWLLPLVWVLFGNVFMGAVHDYLSLMASVRYGGISIVSVGENLMGRKARYLFLIYVLFTLILVYAAFASIAASLFARDPRVATLSILFMPLALLLGIMMYRMGLGMGPSTVITVVLVIAAFVYSYNHGIVIGTFDPSLPPGEGGWVAYHRWVIILGLYALLAASLPVWYLLQPRDYLNAYILWTGLGLAAIAAILLGTQSLKGPAYTSFQPNIIAGQPTPFWPAIPLIIACGSLSGFHSLVASGTTSKQLASELDALFVGYGAMLLEGALSGLAVIIPISFAWNAPELIQKGVIENNMLDLAAVPRYAVGYGYTLAKTFEMFGVGFDTGYSFFTLFASLMLSMYVLTTLDTGTRLARFAWQELFDWLANVDKNLYSIVTNKWVSSLAVVIIGSALAYPVLEIGAGYKAAYNVVWPAFAGANQMLAAIALLTSALWVYGVLNVRGGTGLLILLPSLFLWVTVTAGLTWWLMVILPVLPAIQQFGAGSMILFTLLLSLLLFALFIINFNKLSKQAGASQQAQA”, the protein production result is “failed”. Regarding “MLRSVYEMTKISKIIDELNNQQADAAWITTPLNVYYFTGYRSEPHERLFALLIKKDGKQVLFCPKMEVEEVKASPFTGEIVGYLDTENPFSLYPQTINKLLIESEHLTVARQKQLISGFNVNSFGDVDLTIKQLR”, the protein production entry was “not failed”. Next, “MAKEIKFSDSARNLLFEGVRQLHDAVKVTMGPRGRNVLIQKSYGAPSITKDGVSVAKEIELSCPVANMGAQLVKEVASKTADAAGDGTTTATVLAYSIFKEGLRNITAGANPIEVKRGMDKAAEAIINELKKASKKVGGKEEITQVATISANSDHNIGKLIADAMEKVGKDGVITVEEAKGIEDELDVVEGMQFDRGYLSPYFVTNAEKMTAQLDNAYILLTDKKISSMKDILPLLEKTMKEGKPLLIIAEDIEGEALTTLVVNKLRGVLNIAAVKAPGFGDRRKEMLKDIAILTGGQVISEELGLSLENAEVEFLGKAGRIVIDKDNTTIVDGKGHSHDVKDRVAQIKTQIASTTSDYDKEKLQERLAKLSGGVAVIKVGAASEVEMKEKKDRVDDALSATKAAVEEGIVIGGGAALIRAAQKVHLNLHDDEKVGYEIIMRAIKAPLAQIAINAGYDGGVVVNEVEKHEGHFGFNASNGKYVDMFKEGIIDPLKVERIALQNAVSVSSLLLTTEATVHEIKEEKAAPAMPDMGGMGGMGGMGGMM”: “failed”; “MFSKGVDSLDRTQDDPVHCMPGLTAGLSGRLLLLTVIFVMIAEVLIFVPSVANMRLSWLRDRLNTAAAAGAVIDGLQAELPRSVQNDTLMATGAKLIALRKDGTSRLLAVAETPPGVDEQYDLSDVSQAAAVRDAFSTLLFGGNRVIRVFDVVGDSDTIIELVLGENKLRAAMLAYARNVFLISIVLSLVTAGLIFISINRIMIRPIRRLTLGMQNFSEDPGNPERIFVPEEGTDELSVAGRHLADMQTELQKTLRQQKNLVDLGLAVSKINHDMRNILSSAQLMSDRLVDAKDPMVRSFAPKLLRTIDRAVAYTGEVLAYGQATEGAPKRKIVPLSLLVRDVRDILALDPDSGIEFHDSVPPDLTVDADSEQLFRVIHNLCRNAVQALQSDVANSAPRHLSISAQRAGSVVSIVIDDNGPGMPRKAKENLFSAFRGSARSGGTGLGLVIARELVLAHGGTIALVEKPGPGTQFRIEIADRAASIQAARTA”: “failed”. Next, “MTFPVIGVVGGGQLARMMAPPATALGFELRVLAEGEDVSAVAAVATAPIGDYKDLDALLEFSKGLDVMTFDHEHVPTQHLQALLDAGVNVQPGPDALVNAQDKLVMRAAIDRLGLPNPEWSAVNTVDELVAFGERIGWPVVLKTPRGGYDGKGVRMVDSADDALETADWFQAMSPLLAEAKVEFSRELSALVARSPSGESRAWPVVHTIQVDGVCDEVIAPAQNISVEVAAAAEEAALRIANELGVTGVMAAELFETPGVGVGFLINELAMRPHNTGHWTQDGSITSQFEQHLRAVLDLPLGATDALAPVVVMKNFLGGDNQDLFKAFPMALAFEPAAKVHSYGKSVRPGRKIGHVNLVGSSVSDVDSVRQRATAVANIIRDGRKPEQTTLEETA”: “failed”.

“MSLSTFNRIHLVVLDSVGIGAAPDANNFSNAGVPDGASDTLGHISKTVGLNVPNMAKIGLGNIPRDTPLKTVPAENHPTGYVTKLEEVSLGKDTMTGHWEIMGLNITEPFDTFWNGFPEEIISKIEKFSGRKVIREANKPYSGTAVIDDFGPRQMETGELIIYTSADPVLQIAAHEDVIPLDELYRICEYARSITLERPALLGRIIARPYVGKPRNFTRTANRHDYALSPFAPTVLNKLADAGVSTYAVGKINDIFNGSGITNDMGHNKSNSHGVDTLIKTMGLSAFTKGFSFTNLVDFDALYGHRRNAHGYRDCLHEFDERLPEIIAAMKVDDLLLITADHGNDPTYAGTDHTREYVPLLAYSPSFTGNGVLPVGHYADISATIADNFGVDTAMIGESFLDKLIEGHHHHHH”: the protein production result is given as “not failed”.

For the sequence “MKVIKTAPLIPSEIKVLEKEGNRVKISLAPFEFGYAVTLAHPIRRLLLLSSVGYAPVGLKIEGVHHEFDSLRGVTEDVSLFIMNLKNIRFIAKALVGQDSSLENQSVVVDYSFKGPMELRARDLNSEQIEIVNPEMPLATINEDAQLNFSLIIYKGMGYVPSENTRELMPEGYMPLDGSFTPIKKVVYEIENVLVEGDPNYEKIIFDIETDGQIDPYKAFLSAVKVMSKQLGVFGERPIANTEYSGDYAQRDDAKDLSAKIESMNLSARCFNCLDKIGIKYVGELVLMSEEELKGVKNMGKKSYDEIAEKLNDLGYPVGTELSPEQRESLKKRLEKLEDKGGND”, the protein production result was “failed”. On to “MEDKRNRGRRITDRITEAYYELMKIVAENNHERMFEYYVEDDEAYIFKIVNSSPAQETVYPFFKQNIDTYMSECPADSIECFKKQLDKCLLRPMRTAFQLSFISEDGKSRPVEMYMVSIPDLDKKVCMVVGVMFDIRDEKGLLDSLTGTYNHLAFENKCTSLIRQKGTKLLFVMLDVDDFKIVNDTLGHNVGDRVLSQTGQVLKEAVGANGIVGRLGGDEFAAIVFGLEDSDAVDEFCVKLSGRLKNIIFDMEYSASIGMTTGDDRELTFKDLYYEADQAMYYSKRQGKNRISFFNSIRKNDITVPHNSCAPSITDVSCRMSDREIFSYDEMPDYILAVDEESRRIVFVNKAIRNSSVMTASQIDEFISKPFEDGFIDLFLRKKEQGNRVSVFQERIIPTI”, for which the protein production result is reported as “failed”.

In the case of “MNQQPIKIAVFGLGGVGGYYGAMLALRAAATDGLLEVSWIARGAHLEAIRAAGGLRVVTPSRDFLARPTCVTDNPAEVGTVDYILFCTKDYDMERGVAEIRPMIGQNTKILPLLNGADIAERMRTYLPDTVVWKGCVYISARKSAPGLITLEADRELFYFGSGLPEQTDDEVRLAELLTAAGIRAYNPTDIDWYIMKKFMMISVTATATAYFDKPIGSILTEHEPELLSLLEEVAELFRAKYGQVPDDVVQQLLDKQRKMPPESTSSMHSDFLQGGSTEVETLTGYVVREAEALRVDLPMYKRMYRELVSRTAN”, the protein production entry is “not failed”.

Take “MEKIIVRGGKRLNGTVRVEGAKNAVLPIIAAALLASDGKNVLSEVPVLSDVYTINEVLRHLNAEVVFENNQVTIDASKELNIEAPFEYVRKMRASVQVMGPLLARNGRARIALPGGCAIGSRPIDQHLKGFEAMGAKVQVGNGFVEAYVEGELKGAKIYLDFPSVGATENIMSAATLAKGTTILENAAKEPEIVDLANFLNAMGAKVRGAGTGTIRIEGVDKLYGANHSIIPDRIEAGTFMVAAAITGGDILIENAVPEHLRSITAKMEEMGVKIIEENEGVRVIGPDKLKAVDIKTMPHPGFPTDMQSQMMALLLQADGTSMITETVFENRFMHVEEFRRMNADIKIEGRSVIMNGPNSLQGAEVGATDLRAAAALILAGLVSEGYTRVTELKHLDRGYVDFHKKLAALGATIERVNEKVEEVKEQEVSDLHA”: the protein production result is listed as “not failed”. Next, “MKRSNTVRLVVSKEQHEVLKRLGIATAKCWNEVNWLRMKQYKEGKRVDFGITEKAVYEKYKSVLRVNAQQVARKNAEDWRSFFSLTREKKEGKLPSWFKPRPPGYWKDGRLIVIIRNDRYTVDERNRVVYLKDFNLSLKFKGRLKWHGKQGRLEIIYDEARKIWYAHIPVEVETEKVKEGIKASIDLGIVNLATVYVEDGSWYLFKGGSALSHYENYSKRITIVQKTLHRHRQRRSRRLKLLHEKRSRFLKHALNSMVRRIMEILREKNVGEVVVGYPKEIAKHHGNKLTVNFWNYSYIIKRLEDIGEELGIKVITVDEAYTSKTCSLCGEAHEDGRVKRGLFVCPRTRKAINADLNGAINILHIPESRGSEGNFHRGIGVIGLKTQPVTLSDLSKIKNHYNYSISDYTILHYIQPLEHHHHHH”: “not failed”. On to “MICLTSKMMAFLPYFLELKGKRVNIQALINDRVSQAIEAAGAPAGTPALVRQSAKAQFGDYQANGIMGAAKQLGTNPREFAQKVLDVLNLEGIASKTEIAGPGFINIFLSEEFLAAQAEAALADAR”, for which the protein production entry was “failed”. Next, “MAGKRKKPKDTDLPPRVYRGKSKYEFHPARGGSISLCPLDAPISQVWSDYEKVNDRLPEKVTLNKLTEQFLHSMDFCELAIETQKDYRKYSLKLLPVFGEMSPDNIRPEHIRKYMDKRGITSRTQANREKTFLSRVYRWGYERGMVKGNPCRGVKQFTEKARDRYITDEEYDAVYQVAPDVVRVAMEIAYLCLARQADVLALRRDQLREPGIYIKQGKTAARQIKAWSERLRDAITLAESLPLKSGISSVYIIHQRTGLRYTRDGFNSKWRKAREVAKKTYPELDFNFTFHDLKAKGVSDLEGTLSEKQAISGHKNMGQTARYDRKIKIVPVVGNQKK”: “failed”.

With “MKIAIASGKGGTGKTTVAVNLALALEEVQLFDCDVEEPNCNLFLGFEMEPVEEVVFLVPEINPDKCTLCRGCSDFCRYNALAAIPNRILSFPSLCHGCGGCSFVCPAGAIEEKPETIGIIQKALSDSPLTFFCGTLKIGKATATPVIKSLQNHIDESRPAIIDSPPGTACPVLAVMGFADYCVLVTESTPFGFHDFCLALEAARALNVPVGVVLNRDGLGDSRVEDFCRAEGIPILLRIPNDRTIARLYSEGIPFVKEMPEWKKQFKDMFETIKTGLYESKGVQLEHHHHHH”, the protein production result is recorded as “failed”.

Source of the values: a protein production outcome set (Wang et al. 2014).
